From the RNAGym collection of RNA variant scans (doi:10.7554/elife.90254)

B1: OR4K15 (parent)
chain: GUUAACGGUCAUAGGCCAUGGAAACUAGGAGCACCAUUUCGCUGCCAGUGAAGAAAUGAACAAAGAAAAUCUGGGCCAGGCAGGCAUCAAAAGAAAUAGUCUUGCGCUCAACCAGAAAGUCUGUAAUCAUUUUAAGGGUA

Variants of: B1
Test: self-cleavage, relative activity (ratio to wild type); higher = more cleavage; in vitro, sequencing; the parent is a self-cleaving ribozyme

In order of falling self-cleavage:
1. A86U U127A  2.92
2. G83A A86U  2.81
3. U87A A92G  2.61
4. G84A A117G  2.38
5. U87C G137A  2.3
6. U87A U100C  2.28
7. A89U A95G  2.26
8. C88A U102C  2.23
9. U87A A134G  2.21
10. G83A A86G  2.15
11. G84A A92U  2.15
12. C88U A95G  2.12
13. G83A G93U  2.03
14. G83A U122C  1.87
15. G83A A89U  1.82
16. A89U A91G  1.78
17. A86U A91U  1.77
18. U87C A89G  1.73
19. A89G U139A  1.67
20. U87A  1.65
21. C88U A129G  1.65
22. A86U A126G  1.63
23. A86U A140G  1.62
24. A86G U122A  1.61
25. A86U U139A  1.53
26. A89C U139C  1.52
27. A86U A89C  1.51
28. A89U A110U  1.46
29. A86U U130C  1.44
30. C88A U130C  1.42
31. A89U A98U  1.41
32. A89G U132C  1.4
33. U87C A94U  1.37
34. A86U U102A  1.36
35. A86G A140U  1.3
36. U87A A90G  1.29
37. A86C U102C  1.29
38. A89C G136A  1.27
39. C88U A94G  1.27
40. C85U A140G  1.26
41. U87A A118G  1.26
42. A86G U131C  1.23
43. G83A U87C  1.21
44. U87C G138A  1.2
45. A86G U132A  1.2
46. U87C A126U  1.18
47. C85A  1.18
48. C85G  1.18
49. C85U  1.15
50. A89C U130C  1.12
51. G83U C88U  1.11
52. U87C U131C  1.07
53. U87C U122C  1.07
54. U87C A94G  1.04
55. A89G U122C  1.03
56. A86U U124A  1.02
57. A89G U139C  1.02
58. A86G U97A  0.97
59. U87C  0.94
60. A89G U124C  0.93
61. A82G C121U  0.91
62. C85U U122C  0.9
63. A82G G136A  0.9
64. A86G U122C  0.88
65. A82G A86U  0.88
66. A86G U87C  0.87
67. A89C A126U  0.86
68. U87C U124C  0.83
69. A86C U127C  0.83
70. U87C A126G  0.82
71. A86G A116G  0.79
72. A82G A92C  0.78
73. A86G A140G  0.77
74. U87A A95G  0.76
75. A82G G123A  0.75
76. U87G  0.74
77. C85A U100C  0.72
78. A82G U133C  0.72
79. A89G A90G  0.71
80. G83A C109U  0.71
81. U87C A117G  0.7
82. U87A A125G  0.68
83. A82G A92G  0.67
84. A89G U120C  0.65
85. A86G A91C  0.64
86. A82G A96G  0.59
87. A82G A91U  0.59
88. A82G A135G  0.58
89. C88A U102A  0.58
90. A89G U103C  0.55
91. A82G A134G  0.54
92. C85U A91G  0.52
93. A86G A98G  0.52
94. A82G A89U  0.51
95. A89U A114G  0.49
96. U87G A117G  0.46
97. A82G A96U  0.45
98. A82G A89G  0.45
99. G84U A114G  0.45
100. A82G U131C  0.45
101. G84U A110U  0.44
102. U87G A134G  0.44
103. A86G U124A  0.4
104. A82G  0.4
105. U87C U131A  0.39
106. A86U A98G  0.37
107. A82U A86U  0.32
108. C85G A86U  0.31
109. G83U U127C  0.29
110. A82U A125C  0.29
111. U87A A116G  0.28
112. A82U U122G  0.28
113. A82G A118C  0.28
114. A82G A98G  0.27
115. G84C U100C  0.27
116. A82G U100A  0.25
117. A86C A114G  0.24
118. A82U A140G  0.23
119. A86G C109U  0.22
120. U87G U103C  0.22
121. A82U A135G  0.22
122. A82U A94U  0.21
123. A82U G123A  0.19
124. A89C A110G  0.18
125. A82C A134G  0.17
126. A86G A110G  0.16
127. A86C U108A  0.16
128. A82U A134G  0.16
129. A82C A117G  0.15
130. U87C U130G  0.15
131. G83U U122A  0.15
132. A86G G115A  0.14
133. A82C U131A  0.14
134. A82U  0.14
135. U87C C101A  0.14
136. A82U A86G  0.12
137. A82U A135U  0.12
138. A86G A111U  0.11
139. A82G U120C  0.11
140. A82G U122A  0.11
141. A82U A116G  0.09
142. A82U A129G  0.08
143. A82G A117C  0.06
144. A82U A98G  0.06
145. A82U A94C  0.06
146. A82U A126C  0.05
147. A82G C113U  0.05
148. A82C A114G  0.05
149. A82G U108A  0.04
150. A82U U127A  0.04
151. U87C A111G  0.03
152. A82U A125G  0.03
153. A86G C113U  0.03
154. G84U U108C  0.02
155. A82G U108C  0.02
156. U87G U108C  0.02
157. U87C U108G  0.02
158. U87C A111C  0.02
159. A86G A111G  0.02
160. A82C A114U  0.02
161. G84A U108C  0.01
162. A89G A118C  0.01
163. A82U U108C  0.01
164. A82U C105U  0.01
165. C88A A111G  0
166. U87C A117C  0
167. A86G C112A  0
